# Assay results published in US20100222258A1 (KABUSHIKI KAISHA HAYASHIBARA SEIBUTSU KAGAKU KENKYUJO, published 2010).
# Residue numbers refer to the chain shown, from its start.
# T1: TNF-R1 on HEp-2 cells (human, UniProt P19438 30-455)
# T1 sequence (looked up): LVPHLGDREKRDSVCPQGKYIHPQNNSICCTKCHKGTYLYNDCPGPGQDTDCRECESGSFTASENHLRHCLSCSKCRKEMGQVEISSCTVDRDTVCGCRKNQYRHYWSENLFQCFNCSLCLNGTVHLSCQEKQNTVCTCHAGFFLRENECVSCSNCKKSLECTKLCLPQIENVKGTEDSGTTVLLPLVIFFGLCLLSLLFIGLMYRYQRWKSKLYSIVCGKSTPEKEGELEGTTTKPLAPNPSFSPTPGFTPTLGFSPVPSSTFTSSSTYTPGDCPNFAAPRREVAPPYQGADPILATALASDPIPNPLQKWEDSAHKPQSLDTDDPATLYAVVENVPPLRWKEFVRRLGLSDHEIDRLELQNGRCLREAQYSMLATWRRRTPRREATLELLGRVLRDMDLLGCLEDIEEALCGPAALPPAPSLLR
# T2: TNF-R1 on L-M cells (mouse, UniProt P25118 30-454)
# T2 sequence (looked up): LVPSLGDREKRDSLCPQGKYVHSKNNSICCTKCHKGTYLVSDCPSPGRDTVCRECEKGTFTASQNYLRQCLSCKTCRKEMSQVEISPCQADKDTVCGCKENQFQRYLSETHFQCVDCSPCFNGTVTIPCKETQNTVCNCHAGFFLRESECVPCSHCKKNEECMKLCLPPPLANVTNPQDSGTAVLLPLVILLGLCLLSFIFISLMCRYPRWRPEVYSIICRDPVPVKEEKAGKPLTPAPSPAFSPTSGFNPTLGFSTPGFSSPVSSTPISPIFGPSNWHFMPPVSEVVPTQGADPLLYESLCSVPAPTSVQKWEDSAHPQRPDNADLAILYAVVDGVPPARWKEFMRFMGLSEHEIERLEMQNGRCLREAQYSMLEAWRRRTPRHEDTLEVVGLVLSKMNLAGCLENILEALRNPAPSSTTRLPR
# T3: TNF-R1 (a protein having the amino acid sequence, Accession No. M58286 registered at GENBANK) (UniProt P19438 30-211, limits assumed)
# T3 construct: also called TNF receptor having a molecular weight of 55 kilo daltons
# T3 sequence (looked up): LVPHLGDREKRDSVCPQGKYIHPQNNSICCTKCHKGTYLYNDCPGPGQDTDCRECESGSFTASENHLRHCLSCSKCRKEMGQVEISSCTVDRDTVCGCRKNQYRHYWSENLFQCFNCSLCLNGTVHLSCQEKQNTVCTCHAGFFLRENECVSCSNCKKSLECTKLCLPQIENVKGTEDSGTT
# T4: TNF-R2 (a protein having the amino acid sequence, Accession No. M55994 registered at GENBANK) (UniProt P20333 23-257, limits assumed)
# T4 construct: also called TNF receptor with 75 kilo daltons
# T4 sequence (looked up): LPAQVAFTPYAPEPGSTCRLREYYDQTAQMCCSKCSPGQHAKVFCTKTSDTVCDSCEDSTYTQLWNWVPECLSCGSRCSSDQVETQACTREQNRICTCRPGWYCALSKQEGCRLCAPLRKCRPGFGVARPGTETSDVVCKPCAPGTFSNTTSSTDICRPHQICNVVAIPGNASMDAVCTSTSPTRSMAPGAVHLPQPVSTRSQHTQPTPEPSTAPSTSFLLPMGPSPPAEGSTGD
# B1: TNF mutant protein of clone No. 36 (ligand)
# chain: VRSSSRTPSDMPVAHVVANPQAEGQLQWLNRRANALLANGVELRDNQLVVPSEGLYLIYSQVLFSGQGCPSTHVLLTHTISRIAPGYSHPVNLLSAIRSPCQRETPEGAEANPWYEPIYLGGVFQLEPGDRLSAEINRPDYLDFAESGQVYFGIIAL
# notes: Mutant of lysine-replaced TNF, made in E. coli; also called TNF antagonist of clone No. 36
# B2: TNF mutant protein of clone No. 37 (ligand)
# chain: B1 chain with A84S, P85T, G86T, Y87H, S88N, H89Q
# notes: Mutant of lysine-replaced TNF, made in E. coli; also called TNF antagonist of clone No. 37
# B3: TNF mutant protein of clone No. 38 (ligand)
# chain: B1 chain with A84G, P85G, G86P, S88Q, H89R
# notes: Mutant of lysine-replaced TNF, made in E. coli; also called TNF antagonist of clone No. 38
# B4: TNF mutant protein of clone No. 18 (ligand)
# chain: B1 chain with A84S, G86L, S88P, H89K
# notes: Mutant of lysine-replaced TNF, made in E. coli
# B5: TNF mutant protein of clone No. 19 (ligand)
# chain: B1 chain with A84S, P85Y, G86N, S88N, H89G
# notes: as for B4
# B6: TNF mutant protein of clone No. 21 (ligand)
# chain: B1 chain with A84T, P85S, G86A, S88G, H89P
# notes: as for B4
# B7: TNF mutant protein of clone No. 23 (ligand)
# chain: B1 chain with A84T, P85T, G86A, H89G
# notes: as for B4
# B8: TNF mutant protein of clone No. 24 (ligand)
# chain: B1 chain with A84T, P85H, G86K, S88P, H89Q
# notes: as for B4
# B9: TNF mutant protein of clone No. 25 (ligand)
# chain: B1 chain with A84S, P85K, G86T
# notes: as for B4
# B10: TNF mutant protein of clone No. 26 (ligand)
# chain: B1 chain with A84S, P85S, G86H, S88R, H89F
# notes: as for B4
# B11: TNF mutant protein of clone No. 33 (ligand)
# chain: B1 chain with A84N, P85H, G86R, S88Q, H89D
# notes: as for B4
# B12: TNF mutant protein of clone No. 1 (ligand)
# chain: B1 chain with L29Q, R32W, P85V, G86S, S88Q, H89T
# notes: as for B4
# B13: TNF mutant protein of clone No. 3 (ligand)
# chain: B1 chain with R31S, R32D, P85V, G86S, S88Q, H89T, E146A, S147R
# notes: as for B4
# B14: TNF mutant protein of clone No. 17 (ligand)
# chain: B1 chain with A84S, P85K, G86T, S88T
# notes: as for B4
# B15: TNF mutant protein of clone No. 22 (ligand)
# chain: B1 chain with A84S, P85R, G86V, S88T, H89A
# notes: as for B4
# B16: TNF mutant protein of clone No. 28 (ligand)
# chain: B1 chain with A84T, P85K, G86S, H89K
# notes: as for B4
# B17: TNF mutant protein of clone No. 29 (ligand)
# chain: B1 chain with A84T, P85E, G86Q
# notes: as for B4
# B18: TNF mutant protein of clone No. 6 (ligand)
# chain: VRSSSRTPSDMPVAHVVANPQAEGQLQWSNRYANALLANGVELRDNQLVVPSEGLYLIYSQVLFSGQGCPSTHVLLTHTISRIAVSYQTPVNLLSAIRSPCQRETPEGAEANPWYEPIYLGGVFQLEPGDRLSAEINRPDYLDFSM
# notes: Mutant of lysine-replaced TNF, made in E. coli; stop codon at position 147
# Biological target: T1, TNF-R1 on HEp-2 cells
# Assay: cell-based or functional assay
Binder,"Viability (%) of HEp-2 cells, 10 ng/ml TNF-α + 1,000 ng/ml TNF antagonist (9 without antagonist) [%]","Viability (%) of HEp-2 cells, 10 ng/ml TNF-α + 10,000 ng/ml TNF antagonist (9 without antagonist) [%]","Viability (%) of HEp-2 cells, 10 ng/ml TNF-α + 100,000 ng/ml TNF antagonist (9 without antagonist) [%]","Viability (%) of HEp-2 cells, 10 ng/ml TNF-α + 500,000 ng/ml TNF antagonist (9 without antagonist) [%]"
B1,12,13,38,74
B2,11,18,43,75
B3,11,22,72,95

# Biological target: T2, TNF-R1 on L-M cells
# Assay: cell-based or functional assay
Binder,"Viability (%) of L-M cells, 10 ng/ml TNF-α + 1,000 ng/ml TNF antagonist (17 without antagonist) [%]","Viability (%) of L-M cells, 10 ng/ml TNF-α + 10,000 ng/ml TNF antagonist (17 without antagonist) [%]","Viability (%) of L-M cells, 10 ng/ml TNF-α + 100,000 ng/ml TNF antagonist (17 without antagonist) [%]","Viability (%) of L-M cells, 10 ng/ml TNF-α + 500,000 ng/ml TNF antagonist (17 without antagonist) [%]"
B1,43,54,63,59
B2,42,51,59,72
B3,42,47,58,70

# Biological target: T3, TNF-R1 (a protein having the amino acid …)
# Assay: SPR (BIACORE 2000), receptor on sensor tip; grade 4 = two times or more that of recombinant TNF-α
# From the text: (§1) Using the above detector based on surface plasmon resonance effect again, the resulting clones binding to TNF-R1 (or TNF-R2) were subjected to the remaining sensor tip conjugated with TNF-R2 (or TNF-R1) to measure receptor binding affinity and select clones having a variation of receptor binding affinity. […] The resulting DNAs were digested with restrict enzymes NdeI and BamHI to obtain DNA fragments. The resulting DNA fragments were introduced into a plasmid vector containing T7 promoter region, T7 terminator region, ampicillin resistant gene region and ColE1/Ori region (product name “pET-3a”, manufactured by “Novagen®” (EMD Biosciences, Inc.)) at the position of the above restriction sites. The resulting plasmid was introduced into E. coli BL21DE3 strain to obtain a transformed E. coli for producing the TNF mutant proteins. The obtained transformed E. coli was cultured according to usual method and centrifuged to collect E. coli pellet. The resulting pellet was washed twice with TES buffer (pH 8.0) (20 mM Tris-HCl, 10 mM ethylene diamine tetraacetic acid and 0.5 M sodium chloride) and admixed with TES buffer (pH 8.0) containing 0.2 mg/ml lysozyme. The resulting suspension was sonicated according to usual manner, and centrifuged to collect a precipitate containing the produced TNF mutant protein. The resulting precipitate was treated three times in a manner of admixing with TES buffer containing 1 (w/w) % Triton X-100, removed from supernatant by centrifuging, admixed with 50 mM Tris-HCl (pH 7.0) containing 8 M guanidine hydrochloride and 50 mM dithiothreitol, with stirring for 16 hours at ambient temperature under shielded condition, and centrifuged to collect a supernatant. The resulting supernatant was gently admixed with 100 time volumes of a aqueous solution containing 1 M Tris, 0.9 (w/v) % sodium chloride, 0.4 M L-arginine chloride, 2.5 mM reduced glutathione, 0.5 mM oxidized glutathione and 0.05 (w/v) % Tween 20, and kept at 4° C. for 16 hours.
row,Binder,binding affinity relative to recombinant TNF-α [fold]
1,B4,≥ 2
2,B5,≥ 2
3,B6,≥ 2
4,B7,≥ 2
5,B8,≥ 2
6,B9,≥ 2
7,B10,≥ 2
8,B11,≥ 2

# Biological target: T3, TNF-R1 (a protein having the amino acid …)
# Assay: SPR (BIACORE 2000), receptor on sensor tip; grade 3 = 0.5 to 2 times that of recombinant TNF-α
# From the text: as §1
row,Binder,binding affinity relative to recombinant TNF-α [fold]
1,B12,0.5 to 2
2,B13,0.5 to 2
3,B14,0.5 to 2
4,B15,0.5 to 2
5,B16,0.5 to 2
6,B17,0.5 to 2
7,B1,0.5 to 2
8,B2,0.5 to 2
9,B3,0.5 to 2
10,B18,0.5 to 2

# Biological target: T4, TNF-R2 (a protein having the amino acid …)
# Assay: SPR (BIACORE 2000), receptor on sensor tip; grade 1 = 0.001 to 0.1 time that of recombinant TNF-α
# From the text: as §1
row,Binder,binding affinity relative to recombinant TNF-α [fold]
1,B12,0.001 to 0.1
2,B13,0.001 to 0.1
3,B14,0.001 to 0.1
4,B4,0.001 to 0.1
5,B5,0.001 to 0.1
6,B6,0.001 to 0.1
7,B15,0.001 to 0.1
8,B7,0.001 to 0.1
9,B8,0.001 to 0.1
10,B9,0.001 to 0.1
11,B10,0.001 to 0.1
12,B16,0.001 to 0.1
13,B17,0.001 to 0.1
14,B11,0.001 to 0.1
15,B1,0.001 to 0.1
16,B2,0.001 to 0.1
17,B3,0.001 to 0.1
18,B18,0.001 to 0.1
